Source: paper PMC6929039

Target: Concanavalin A (Con A) (UniProt P02866 164-281+30-148, internal_change)
Assay: particle flow cytometry; 10 nM Con A; binding buffer, salt, pH and temperature not given in the material (hemagglutination: 30 min preincubation at RT)

B1: ConA-3-1n (ssDNA)
DNA: GATCCCAGTCCGAAGTAATCGTTGCATCTGCACGACTGGTGAGCTTGAGTGGCAGAAGAACTTGTGCAAACGGCTATAGG
modifications: none
  binding result: no binding
